Source: patent US20070065890

Tests used:
[1] = target: purified recombinant HA-H1b (expressed in E. coli), P10412
[2] = target: H1 histones isolated from cells treated with TSA and nicotinamide, P10412
[3] = target: histone H1 (purified calf thymus H1)

Sequence of purified recombinant HA-H1b (expressed in E. coli), P10412 (P10412 whole entry, looked up): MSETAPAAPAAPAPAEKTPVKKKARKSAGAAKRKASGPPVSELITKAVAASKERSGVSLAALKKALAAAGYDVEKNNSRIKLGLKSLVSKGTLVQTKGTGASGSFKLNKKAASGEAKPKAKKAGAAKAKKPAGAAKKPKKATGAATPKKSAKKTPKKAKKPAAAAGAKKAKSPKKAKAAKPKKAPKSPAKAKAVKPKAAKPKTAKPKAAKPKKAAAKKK
Sequence of H1 histones isolated from cells treated with TSA and nicotinamide, P10412 (P10412 whole entry, looked up): as above

Protein	release of [3H]-acetyl label from p300-acetylated recombinant H1b [1]	western blot with the acetyl H1-K26 antibody after treatment with SirT1 [2]	nicotinamide exchange reaction (NER) with H1 as acetylated substrate [3]	release of [3H]-acetyl label from p300-acetylated H1 [3]
recombinant SirT3 (protein) MAFWGWRAAAALRLWGRVVERVEAGGGVGPFQACGCRLVLGGRDDVSAGLRGSHGARGEPLDPARPLQRPPRPEVPRAFRRQPRAAAPSFFFSSIKGGRRSISFSVGASSVVGSGGSSDKGKLSLQDVAELIRARACQRVVVMVGAGISTPSGIPDFRSPGSGLYSNLQQYDLPYPEAIFELPFFFHNPKPFFTLAKELYPGNYKPNVTHYFLRLLHDKGLLLRLYTQNIDGLERVSGIPASKLVEAHGTFASATCTVCQRPFPGEDIRADVMADRVPRCPVCTGVVKPDIVFFGEPLPQRFLLHVVDFPMADLLLILGTSLEVEPFASLTEAVRSSVPRLLINRDLVGPLAWHPRSRDVAQLGDVVHGVESLVELLGWTEEMRDLVQRETGKLDGPDK	SirT2 or SirT3 failed to significantly deacetylate H1b			
recombinant SirT2 (protein) MAEPDPSHPLETQAGKVQEAQDSDSDSEGGAAGGEADMDFLRNLFSQTLSLGSQKERLLDELTLEGVARYMQSERCRRVICLVGAGISTSAGIPDFRSPSTGLYDNLEKYHLPYPEAIFEISYFKKHPEPFFALAKELYPGQFKPTICHYFMRLLKDKGLLLRCYTQNIDTLERIAGLEQEDLVEAHGTFYTSHCVSASCRHEYPLSWMKEKIFSEVTPKCEDCQSLVKPDIVFFGESLPARFFSCMQSDFLKVDLLLVMGTSLQVQPFASLISKAPLSTPRLLINKEKAGQSDPFLGMIMGLGGGMDFDSKKAYRDVAWLGECDQGCLALAELLGWKKELEDLVRREHASIDAQSGAGVPNPSTSASPKKSPPPAKDEARTTEREKPQ	SirT2 or SirT3 failed to significantly deacetylate H1b			
baculovirus-expressed recombinant FLAG-SirT1 protein (protein) MADEAALALQPGGSPSAAGADREAASSPAGEPLRKRPRRDGPGLERSPGEPGGAAPEREVPAAARGCPGAAAAALWREAEAEAAAAGGEQEAQATAAAGEGDNGPGLQGPSREPPLADNLYDEDDDDEGEEEEEAAAAAIGYRDNLLFGDEIITNGFHSCESDEEDRASHASSSDWTPRPRIGPYTFVQQHLMIGTDPRTILKDLLPETIPPPELDDMTLWQIVINILSEPPKRKKRKDINTIEDAVKLLQECKKIIVLTGAGVSVSCGIPDFRSRDGIYARLAVDFPDLPDPQAMFDIEYFRKDPRPFFKFAKEIYPGQFQPSLCHKFIALSDKEGKLLRNYTQNIDTLEQVAGIQRIIQCHGSFATASCLICKYKVDCEAVRGDIFNQVVPRCPRCPADEPLAIMKPEIVFFGENLPEQFHRAMKYDKDEVDLLIVIGSSLKVRPVALIPSSIPHEVPQILINREPLPHLHFDVELLGDCDVIINELCHRLGGEYAKLCCNPVKLSEITEKPPRTQKELAYLSELPPTPLHVSEDSSSPERTSPPDSSVIVTLLDQAAKSNDDLDVSESKGCMEEKPQEVQTSRNVESIAEQMENPDLKNVGSSTGEKNERTSVAGTVRKCWPNRVAKEQISRRLDGNQYLFLPPNRYIFHGAEVYSDSEDDVLSSSSCGSNSDSGTCQSPSLEEPMEDESEIEEFYNGLEDEPDVPERAGGAGFGTDGDDQEAINEAISVKQEVTDMNYPSNKS	The same result was observed using recombinant human H1b	resulted in decreased immunoreactivity	Histone H1 served as substrate in the SirT1-dependent NER assay	SirT1 -released up to 70% of the total label
